What was measured:
Type in all cases: cell-based
HIV-1 Bal = assay: Pseudotyped HIV-1 neutralization (HOS-CD4-CCR5 cells); details: Table 2, clade B, R5
Experimental: (§1) To determine the potency and breadth of HIV-1 neutralization by the D1 mutants, viruses pseudotyped with Envs from HIV-1 isolates representing clades A-E and using either CCR5 (R5) or CXCR4 (X4) or both (R5X4) as a coreceptor were included. Pseudoviruses were derived from 293T cells and a neutralization assay was performed in duplicate using HOS-CD4-CCR5 (for all R5 and dual tropic viruses) or HOS-CD4-CXCR4 cell lines as described in Chen et al., Proc. Natl. Acad. Sci. USA, 105: 17121-17126 (2008)). Luminescence was measured 48 hours post-infection and the percentage neutralization was calculated by the following formula: (1—average RLU of inhibitor-containing wells/average RLU or virus-only wells)×100.

HIV-1 JRFL = assay: as above; details: Table 2, clade B, R5
Experimental: as §1

HIV-1 Env Bal = assay: HIV-1 Env-mediated cell-cell fusion; details: Table 4, clade B, R5
HIV-1 Env JRFL = assay: HIV-1 Env-mediated cell-cell fusion; details: Table 4, clade B, R5

B1: m36.4: engineered single human antibody domain targeting a CD4i epitope on HIV-1 gp120, SEQ ID NO: 15 (antibody, V domains shown)
VH: QVQLVQSGGGLVQPGGSLRLSCAASAFDFSDYEMSWVREAPGKGLEWIGEINDSGNTIYNPSLKSRVTISRDNSKNTLYLQMNTLRAEDTAIYYCAIYGGNSGGEYWGQGTLVTVSS
IC50 (HIV-1 Bal): 16 nM
IC90 (HIV-1 Bal): 75 nM
IC50 (HIV-1 JRFL): 18 nM
IC90 (HIV-1 JRFL): 106 nM
IC90 (HIV-1 Env Bal): 235 nM
IC50 (HIV-1 Env JRFL): 128 nM
IC90 (HIV-1 Env JRFL): 1080 nM
